Where “and” joins values, the source holds several entries; their conditions need not be identical. Equal values may be shown once.
How the values were obtained:
[1] = molecular target: T1, XcpQ_(N012) (N0, N1 and N2 subdomains of the periplasmic N-terminal domain of the P. aeruginosa XcpQ secretin) (Pseudomonas aeruginosa, UniProt P35818); assay: SEC; vHH04 mixed with the preformed XcpQ_(N012) multimer (dodecamer); shift of the H peak; conditions: both partners purified
T1 construct: XcpQ secretin of the Xcp type II secretion system, Pseudomonas aeruginosa; subdomains N0, N1 and N2; 26 kDa; the whole N domain covers residues 51 to 365; Found in solution as dimers (L) and dodecamers (H); also called matured XcpQ_(N012); untagged XcpQ_(N012)

[2] = molecular target: T2, XcpQ_(N012) with biotin tag (fixed on streptavidin sensors) (Pseudomonas aeruginosa) (UniProt P35818); assay: BLI; XcpQ_(N012) fixed on streptavidin sensors by a biotin tag; soluble vHH04 from 0.156 to 10 µM
T2 sequence (chain, biotin (biotin tag, site not stated)): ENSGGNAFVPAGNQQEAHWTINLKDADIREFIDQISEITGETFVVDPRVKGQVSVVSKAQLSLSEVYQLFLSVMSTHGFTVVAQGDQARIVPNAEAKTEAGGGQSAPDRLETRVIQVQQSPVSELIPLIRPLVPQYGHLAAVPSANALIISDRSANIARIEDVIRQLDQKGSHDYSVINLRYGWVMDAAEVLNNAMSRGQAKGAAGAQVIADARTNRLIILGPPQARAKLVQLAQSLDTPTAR

[3] = molecular target: the molecule itself; assay: negative-staining single-particle electron microscopy; SEC fractions diluted to 0.02-0.05 mg/ml, uranyl acetate stain, EMAN2 2D classes; 3D reconstruction with C6 symmetry imposed for the Trx fusions
[4] = molecular target: the molecule itself; assay: SEC + cross-linking; XcpQ_(N012)-T54C-Q86C without H2O2 treatment, HiLoad Superdex 200 16/600; oligomeric fractions on SDS-PAGE under reducing and nonreducing conditions
[5] = molecular target: the molecule itself; assay: cross-linking; in vivo disulfide cross-linking of V5-tagged full-length XcpQ variants in P. aeruginosa PAO1 ΔxcpQ; membranes with N-ethylmaleimide, SDS-PAGE denaturing, nonreducing or reducing, anti-V5 blot
[6] = molecular target: T3, chitin binding protein D (CbpD), Xcp T2SS effector (Pseudomonas aeruginosa, UniProt Q9I589 26-389); assay: BLI; sensor coupled to CbpD or to XcpPp; XcpQ_(N012) alone or the XcpQ_(N012)-vHH04 complex in solution; conditions: both partners purified
T3 construct: Coupled to the BLi sensor; source: purified
T3 sequence: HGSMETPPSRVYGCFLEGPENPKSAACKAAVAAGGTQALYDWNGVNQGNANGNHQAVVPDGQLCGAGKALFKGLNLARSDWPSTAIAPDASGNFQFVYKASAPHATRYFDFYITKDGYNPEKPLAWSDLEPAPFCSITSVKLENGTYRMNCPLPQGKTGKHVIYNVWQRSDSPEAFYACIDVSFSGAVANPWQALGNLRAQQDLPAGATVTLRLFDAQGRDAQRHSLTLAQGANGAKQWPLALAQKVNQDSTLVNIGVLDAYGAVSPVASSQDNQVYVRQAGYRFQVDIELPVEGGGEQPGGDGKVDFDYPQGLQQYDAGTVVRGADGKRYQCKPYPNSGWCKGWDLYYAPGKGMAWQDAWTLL

[7] = molecular target: the molecule itself; assay: SEC; HiLoad 16/600 Superdex 200 column calibrated with standard proteins; purified protein alone

B1: vHH04 nanobody directed against XcpQN (VHH)
VHH: QVQLVESGGGSVQAGGSLRLSCAASGNTDSSYYMGWFRQGPGKEREGVASIYIRAGIPYYTDSVKGRFTISQDNAKNTIYLQMNSLKPEDTAMYFCAGSVRTTIQPFKGNYYNYWGRGTQVTVSS
notes: camel nanobody; About 16 kDa; For the in vivo interference the histidine-tagged vHH04 was produced in the periplasm of P. aeruginosa PAO1 (IPTG-inducible); also called histidine-tagged vHH04; His-tagged vHH04; source: E. coli WK6, purified
stoichiometry N [1]: 6 vHH04 per XcpQ_(N012) dodecamer
Kd [2]: 5.6 µM

B2: Trx-XcpQ_(N012)-S210C (domain or fragment)
chain: ENSGGNAFVPAGNQQEAHWTINLKDADIREFIDQISEITGETFVVDPRVKGQVSVVSKAQLSLSEVYQLFLSVMSTHGFTVVAQGDQARIVPNAEAKTEAGGGQSAPDRLETRVIQVQQSPVSELIPLIRPLVPQYGHLAAVPSANALIISDRSANIARIEDVIRQLDQKGSHDYCVINLRYGWVMDAAEVLNNAMSRGQAKGAAGAQVIADARTNRLIILGPPQARAKLVQLAQSLDTPTAR
notes: XcpQ secretin, Pseudomonas aeruginosa; subdomains N0, N1 and N2; Uncleaved thioredoxin fusion of m3; source: E. coli BL21(DE3)pLysS, purified; copies: 12
binding result [3]: binds

B3: XcpQ_(N012)-T54C-Q86C (domain or fragment)
chain: ENSGGNAFVPAGNQQEAHWCINLKDADIREFIDQISEITGETFVVDPRVKGCVSVVSKAQLSLSEVYQLFLSVMSTHGFTVVAQGDQARIVPNAEAKTEAGGGQSAPDRLETRVIQVQQSPVSELIPLIRPLVPQYGHLAAVPSANALIISDRSANIARIEDVIRQLDQKGSHDYSVINLRYGWVMDAAEVLNNAMSRGQAKGAAGAQVIADARTNRLIILGPPQARAKLVQLAQSLDTPTAR
modifications: disulfide bridges between T54C and Q86C of neighbouring chains
notes: XcpQ secretin, Pseudomonas aeruginosa; subdomains N0, N1 and N2; source: E. coli BL21(DE3)pLysS, purified (same protocol as XcpQ_(N012), SEC without H2O2 treatment)
stoichiometry N [4]: 12 and 4 and 6

B4: full-length XcpQ-S210C (natural protein)
chain: ENSGGNAFVPAGNQQEAHWTINLKDADIREFIDQISEITGETFVVDPRVKGQVSVVSKAQLSLSEVYQLFLSVMSTHGFTVVAQGDQARIVPNAEAKTEAGGGQSAPDRLETRVIQVQQSPVSELIPLIRPLVPQYGHLAAVPSANALIISDRSANIARIEDVIRQLDQKGSHDYCVINLRYGWVMDAAEVLNNAMSRGQAKGAAGAQVIADARTNRLIILGPPQARAKLVQLAQSLDTPTARSANTRVIRLRHNDAKTLAETLGQISEGMKNNGGQGGEQTGGGRPSNILIRADESTNALVLLADPDTVNALEDIVRQLDVPRAQVLVEAAIVEISGDIQDAVGVQWAINKGGMGGTKTNFANTGLSIGTLLQSLESNKAPESIPDGAIVGIGSSSFGALVTALSANTKSNLLSTPSLLTLDNQKAEILVGQNVPFQTGSYTTNSEGSSNPFTTVERKDIGVSLKVTPHINDGAALRLEIEQEISALLPNAQQRNNTDLITSKRSIKSTILAENGQVIVIGGLIQDDVSQAESKVPLLGDIPLLGRLFRSTKDTHTKRNLMVFLRPTVVRDSAGLAALSGKKYSDIRVIDGTRGPEGRPSILPTNANQLFDGQAVDLRELMTE
modifications: disulfide bridge between S210C of two chains
notes: XcpQ secretin, Pseudomonas aeruginosa, full length; Made with its own signal peptide and exported to the envelope; source: P. aeruginosa PAO1 ΔxcpQ, pJN vector, arabinose-induced, in membrane samples; not shown: V5, C-terminal, kept
stoichiometry N [5]: 2

B5: full-length XcpQ-T54C-Q86C (natural protein)
chain: ENSGGNAFVPAGNQQEAHWCINLKDADIREFIDQISEITGETFVVDPRVKGCVSVVSKAQLSLSEVYQLFLSVMSTHGFTVVAQGDQARIVPNAEAKTEAGGGQSAPDRLETRVIQVQQSPVSELIPLIRPLVPQYGHLAAVPSANALIISDRSANIARIEDVIRQLDQKGSHDYSVINLRYGWVMDAAEVLNNAMSRGQAKGAAGAQVIADARTNRLIILGPPQARAKLVQLAQSLDTPTARSANTRVIRLRHNDAKTLAETLGQISEGMKNNGGQGGEQTGGGRPSNILIRADESTNALVLLADPDTVNALEDIVRQLDVPRAQVLVEAAIVEISGDIQDAVGVQWAINKGGMGGTKTNFANTGLSIGTLLQSLESNKAPESIPDGAIVGIGSSSFGALVTALSANTKSNLLSTPSLLTLDNQKAEILVGQNVPFQTGSYTTNSEGSSNPFTTVERKDIGVSLKVTPHINDGAALRLEIEQEISALLPNAQQRNNTDLITSKRSIKSTILAENGQVIVIGGLIQDDVSQAESKVPLLGDIPLLGRLFRSTKDTHTKRNLMVFLRPTVVRDSAGLAALSGKKYSDIRVIDGTRGPEGRPSILPTNANQLFDGQAVDLRELMTE
modifications: disulfide bridge between T54C and Q86C of two chains
notes: as for B4
stoichiometry N [5]: 2

B6: XcpQ_(N012) (N0, N1 and N2 subdomains of the periplasmic N-terminal domain of the P. aeruginosa XcpQ secretin) (domain or fragment, Pseudomonas aeruginosa)
chain: ENSGGNAFVPAGNQQEAHWTINLKDADIREFIDQISEITGETFVVDPRVKGQVSVVSKAQLSLSEVYQLFLSVMSTHGFTVVAQGDQARIVPNAEAKTEAGGGQSAPDRLETRVIQVQQSPVSELIPLIRPLVPQYGHLAAVPSANALIISDRSANIARIEDVIRQLDQKGSHDYSVINLRYGWVMDAAEVLNNAMSRGQAKGAAGAQVIADARTNRLIILGPPQARAKLVQLAQSLDTPTAR
notes: XcpQ secretin of the Xcp type II secretion system, Pseudomonas aeruginosa; subdomains N0, N1 and N2; 26 kDa; the whole N domain covers residues 51 to 365; Found in solution as dimers (L) and dodecamers (H); also called matured XcpQ_(N012); untagged XcpQ_(N012)
binding result [6]: binds

B7: Trx-XcpQ_(N012) fusion protein (domain or fragment)
chain: ENSGGNAFVPAGNQQEAHWTINLKDADIREFIDQISEITGETFVVDPRVKGQVSVVSKAQLSLSEVYQLFLSVMSTHGFTVVAQGDQARIVPNAEAKTEAGGGQSAPDRLETRVIQVQQSPVSELIPLIRPLVPQYGHLAAVPSANALIISDRSANIARIEDVIRQLDQKGSHDYSVINLRYGWVMDAAEVLNNAMSRGQAKGAAGAQVIADARTNRLIILGPPQARAKLVQLAQSLDTPTAR
notes: XcpQ secretin, Pseudomonas aeruginosa; subdomains N0, N1 and N2; Uncleaved thioredoxin fusion of m1; also called Trx-Q_(N012); source: E. coli BL21(DE3)pLysS, purified (SEC); copies: 12
stoichiometry N [7]: 12

— publication PMC5646246, “Unraveling the Self-Assembly of the Pseudomonas aeruginosa XcpQ Secretin Periplasmic Domain Provides New Molecular Insights into Type II Secretion System Secreton Architecture and Dynamics” (mBio, 2017)
